Laboratory results reported in publication PMC10786891, “Massively parallel profiling of RNA-targeting CRISPR-Cas13d”.

T1: EsCas13d, nuclease-dead (Eubacterium siraeum, UniProt B0MS50, R295A;H300A;R849A;H854A)
T1 sequence: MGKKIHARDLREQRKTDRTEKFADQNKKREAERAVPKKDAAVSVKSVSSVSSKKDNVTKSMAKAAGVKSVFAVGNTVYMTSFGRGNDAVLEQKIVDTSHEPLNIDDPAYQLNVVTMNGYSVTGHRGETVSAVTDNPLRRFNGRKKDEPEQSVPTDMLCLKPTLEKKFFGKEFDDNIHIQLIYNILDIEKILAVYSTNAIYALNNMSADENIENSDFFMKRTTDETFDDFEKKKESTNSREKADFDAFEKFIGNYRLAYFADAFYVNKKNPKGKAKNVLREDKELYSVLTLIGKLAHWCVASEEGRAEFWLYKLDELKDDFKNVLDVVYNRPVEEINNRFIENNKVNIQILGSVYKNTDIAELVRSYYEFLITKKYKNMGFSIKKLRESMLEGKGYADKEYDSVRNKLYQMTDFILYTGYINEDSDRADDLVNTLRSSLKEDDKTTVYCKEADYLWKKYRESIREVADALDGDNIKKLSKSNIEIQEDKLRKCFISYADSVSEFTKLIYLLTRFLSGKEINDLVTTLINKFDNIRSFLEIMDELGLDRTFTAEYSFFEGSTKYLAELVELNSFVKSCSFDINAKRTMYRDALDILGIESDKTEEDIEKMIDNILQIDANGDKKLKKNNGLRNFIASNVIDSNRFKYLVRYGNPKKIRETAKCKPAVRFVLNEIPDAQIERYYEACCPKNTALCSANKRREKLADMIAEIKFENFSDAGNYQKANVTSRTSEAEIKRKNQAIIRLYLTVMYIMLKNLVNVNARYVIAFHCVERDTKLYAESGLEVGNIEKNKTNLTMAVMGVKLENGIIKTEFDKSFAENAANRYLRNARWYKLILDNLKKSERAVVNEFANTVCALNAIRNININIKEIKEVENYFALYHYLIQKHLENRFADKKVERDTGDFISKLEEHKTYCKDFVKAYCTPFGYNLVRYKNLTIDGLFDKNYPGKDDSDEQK

B1: target 2 MT 5'PFS CAG 3'PFS AUC (mixed)
RNA 1: CACCCGUGCAAAAUUGCAGGGGUCUAAAACCUUCUCCAAAUUGUUUCAUCCU
RNA 2: GGGAAUGGAUCCACAUCUACGAAUUCCAGAGGAUGAAACAAUUUGGAGAAGAUCAGAUCGGAAGAGCACACGU
B2: target 2 MT 5'PFS GUA 3'PFS AUC (mixed)
RNA 1: CACCCGUGCAAAAUUGCAGGGGUCUAAAACCUUCUCCAAAUUGUUUCAUCCU
RNA 2: GGGAAUGGAUCCACAUCUACGAAUUCGUAAGGAUGAAACAAUUUGGAGAAGAUCAGAUCGGAAGAGCACACGU
B3: target 2 MT 5'PFS GCG 3'PFS AAG (mixed)
RNA 1: CACCCGUGCAAAAUUGCAGGGGUCUAAAACCUUCUCCAAAUUGUUUCAUCCU
RNA 2: GGGAAUGGAUCCACAUCUACGAAUUCGCGAGGAUGAAACAAUUUGGAGAAGAAGAGAUCGGAAGAGCACACGU
B4: target 2 MT 5'PFS GUA 3'PFS AUG (mixed)
RNA 1: CACCCGUGCAAAAUUGCAGGGGUCUAAAACCUUCUCCAAAUUGUUUCAUCCU
RNA 2: GGGAAUGGAUCCACAUCUACGAAUUCGUAAGGAUGAAACAAUUUGGAGAAGAUGAGAUCGGAAGAGCACACGU
B5: target 1 C2G,A9C (mixed)
RNA 1: CACCCGUGCAAAAAUGCAGGGGUCUAAAACUGAGCGGAUAACCUCUCUAUGG
RNA 2: GGGAAUGGAUCCACAUCUACGAAUUCGUACCAUAGAGAGGUUCUCCGCUGACCGAGAUCGGAAGAGCACACGU
B6: target 2 MT 5'PFS GCG 3'PFS UCU (mixed)
RNA 1: CACCCGUGCAAAAUUGCAGGGGUCUAAAACCUUCUCCAAAUUGUUUCAUCCU
RNA 2: GGGAAUGGAUCCACAUCUACGAAUUCGCGAGGAUGAAACAAUUUGGAGAAGUCUAGAUCGGAAGAGCACACGU
B7: target 2 MT 5'PFS CUG 3'PFS UGU (mixed)
RNA 1: CACCCGUGCAAAAUUGCAGGGGUCUAAAACCUUCUCCAAAUUGUUUCAUCCU
RNA 2: GGGAAUGGAUCCACAUCUACGAAUUCCUGAGGAUGAAACAAUUUGGAGAAGUGUAGAUCGGAAGAGCACACGU
B8: target 2 MT 5'PFS GCG 3'PFS UCC (mixed)
RNA 1: CACCCGUGCAAAAUUGCAGGGGUCUAAAACCUUCUCCAAAUUGUUUCAUCCU
RNA 2: GGGAAUGGAUCCACAUCUACGAAUUCGCGAGGAUGAAACAAUUUGGAGAAGUCCAGAUCGGAAGAGCACACGU
B9: target 2 MT 5'PFS GCG 3'PFS UCA (mixed)
RNA 1: CACCCGUGCAAAAUUGCAGGGGUCUAAAACCUUCUCCAAAUUGUUUCAUCCU
RNA 2: GGGAAUGGAUCCACAUCUACGAAUUCGCGAGGAUGAAACAAUUUGGAGAAGUCAAGAUCGGAAGAGCACACGU
B10: target 2 MT 5'PFS GCG 3'PFS UCG (mixed)
RNA 1: CACCCGUGCAAAAUUGCAGGGGUCUAAAACCUUCUCCAAAUUGUUUCAUCCU
RNA 2: GGGAAUGGAUCCACAUCUACGAAUUCGCGAGGAUGAAACAAUUUGGAGAAGUCGAGAUCGGAAGAGCACACGU
B11: target 2 MT 5'PFS GUA 3'PFS AUU (mixed)
RNA 1: CACCCGUGCAAAAUUGCAGGGGUCUAAAACCUUCUCCAAAUUGUUUCAUCCU
RNA 2: GGGAAUGGAUCCACAUCUACGAAUUCGUAAGGAUGAAACAAUUUGGAGAAGAUUAGAUCGGAAGAGCACACGU
B12: target 2 MT 5'PFS ACG 3'PFS CCG (mixed)
RNA 1: CACCCGUGCAAAAUUGCAGGGGUCUAAAACCUUCUCCAAAUUGUUUCAUCCU
RNA 2: GGGAAUGGAUCCACAUCUACGAAUUCACGAGGAUGAAACAAUUUGGAGAAGCCGAGAUCGGAAGAGCACACGU
B13: target 2 MT 5'PFS CUG 3'PFS UGC (mixed)
RNA 1: CACCCGUGCAAAAUUGCAGGGGUCUAAAACCUUCUCCAAAUUGUUUCAUCCU
RNA 2: GGGAAUGGAUCCACAUCUACGAAUUCCUGAGGAUGAAACAAUUUGGAGAAGUGCAGAUCGGAAGAGCACACGU
B14: target 2 MT 5'PFS ACG 3'PFS CCA (mixed)
RNA 1: CACCCGUGCAAAAUUGCAGGGGUCUAAAACCUUCUCCAAAUUGUUUCAUCCU
RNA 2: GGGAAUGGAUCCACAUCUACGAAUUCACGAGGAUGAAACAAUUUGGAGAAGCCAAGAUCGGAAGAGCACACGU
B15: target 2 MT 5'PFS ACU 3'PFS ACG (mixed)
RNA 1: CACCCGUGCAAAAUUGCAGGGGUCUAAAACCUUCUCCAAAUUGUUUCAUCCU
RNA 2: GGGAAUGGAUCCACAUCUACGAAUUCACUAGGAUGAAACAAUUUGGAGAAGACGAGAUCGGAAGAGCACACGU
B16: target 1 A1U,C2G (mixed)
RNA 1: CACCCGUGCAAAAAUGCAGGGGUCUAAAACUGAGCGGAUAACCUCUCUAUGG
RNA 2: GGGAAUGGAUCCACAUCUACGAAUUCGUACCAUAGAGAGGUUAUCCGCUGUCCGAGAUCGGAAGAGCACACGU
B17: target 2 MT 5'PFS ACU 3'PFS ACA (mixed)
RNA 1: CACCCGUGCAAAAUUGCAGGGGUCUAAAACCUUCUCCAAAUUGUUUCAUCCU
RNA 2: GGGAAUGGAUCCACAUCUACGAAUUCACUAGGAUGAAACAAUUUGGAGAAGACAAGAUCGGAAGAGCACACGU
B18: target 2 MT 5'PFS ACU 3'PFS ACC (mixed)
RNA 1: CACCCGUGCAAAAUUGCAGGGGUCUAAAACCUUCUCCAAAUUGUUUCAUCCU
RNA 2: GGGAAUGGAUCCACAUCUACGAAUUCACUAGGAUGAAACAAUUUGGAGAAGACCAGAUCGGAAGAGCACACGU
B19: target 2 MT 5'PFS GAA 3'PFS AGU (mixed)
RNA 1: CACCCGUGCAAAAUUGCAGGGGUCUAAAACCUUCUCCAAAUUGUUUCAUCCU
RNA 2: GGGAAUGGAUCCACAUCUACGAAUUCGAAAGGAUGAAACAAUUUGGAGAAGAGUAGAUCGGAAGAGCACACGU
B20: target 2 MT 5'PFS ACU 3'PFS ACU (mixed)
RNA 1: CACCCGUGCAAAAUUGCAGGGGUCUAAAACCUUCUCCAAAUUGUUUCAUCCU
RNA 2: GGGAAUGGAUCCACAUCUACGAAUUCACUAGGAUGAAACAAUUUGGAGAAGACUAGAUCGGAAGAGCACACGU
B21: target 2 MT 5'PFS GAA 3'PFS AGC (mixed)
RNA 1: CACCCGUGCAAAAUUGCAGGGGUCUAAAACCUUCUCCAAAUUGUUUCAUCCU
RNA 2: GGGAAUGGAUCCACAUCUACGAAUUCGAAAGGAUGAAACAAUUUGGAGAAGAGCAGAUCGGAAGAGCACACGU
B22: target 2 MT 5'PFS GAA 3'PFS AGA (mixed)
RNA 1: CACCCGUGCAAAAUUGCAGGGGUCUAAAACCUUCUCCAAAUUGUUUCAUCCU
RNA 2: GGGAAUGGAUCCACAUCUACGAAUUCGAAAGGAUGAAACAAUUUGGAGAAGAGAAGAUCGGAAGAGCACACGU
B23: target 2 MT 5'PFS GAA 3'PFS AGG (mixed)
RNA 1: CACCCGUGCAAAAUUGCAGGGGUCUAAAACCUUCUCCAAAUUGUUUCAUCCU
RNA 2: GGGAAUGGAUCCACAUCUACGAAUUCGAAAGGAUGAAACAAUUUGGAGAAGAGGAGAUCGGAAGAGCACACGU
B24: target 2 MT 5'PFS AUG 3'PFS CAU (mixed)
RNA 1: CACCCGUGCAAAAUUGCAGGGGUCUAAAACCUUCUCCAAAUUGUUUCAUCCU
RNA 2: GGGAAUGGAUCCACAUCUACGAAUUCAUGAGGAUGAAACAAUUUGGAGAAGCAUAGAUCGGAAGAGCACACGU
B25: target 2 MT 5'PFS UCG 3'PFS CCG (mixed)
RNA 1: CACCCGUGCAAAAUUGCAGGGGUCUAAAACCUUCUCCAAAUUGUUUCAUCCU
RNA 2: GGGAAUGGAUCCACAUCUACGAAUUCUCGAGGAUGAAACAAUUUGGAGAAGCCGAGAUCGGAAGAGCACACGU
B26: target 2 MT 5'PFS AAA 3'PFS UUU (mixed)
RNA 1: CACCCGUGCAAAAUUGCAGGGGUCUAAAACCUUCUCCAAAUUGUUUCAUCCU
RNA 2: GGGAAUGGAUCCACAUCUACGAAUUCAAAAGGAUGAAACAAUUUGGAGAAGUUUAGAUCGGAAGAGCACACGU
B27: target 1 insC 3' of 8,insG 3' of 8 (mixed)
RNA 1: CACCCGUGCAAAAAUGCAGGGGUCUAAAACUGAGCGGAUAACCUCUCUAUGG
RNA 2: GGGAAUGGAUCCACAUCUACGAAUUCGUACCAUAGAGAGGUUAUCGCCGCUCACCGAGAUCGGAAGAGCACACGU
B28: target 2 MT 5'PFS CCG 3'PFS CCC (mixed)
RNA 1: CACCCGUGCAAAAUUGCAGGGGUCUAAAACCUUCUCCAAAUUGUUUCAUCCU
RNA 2: GGGAAUGGAUCCACAUCUACGAAUUCCCGAGGAUGAAACAAUUUGGAGAAGCCCAGAUCGGAAGAGCACACGU

What follows are binders tested against T1, EsCas13d, nuclease-dead (assay: crRNA (strand 1, pre-loaded); Mg2+; 40 mM Tris-HCl pH 7.5, 150 mM NaCl, 6 mM MgCl2, 1 mM DTT, 0.1% Tween-20, 0.2 mg/ml BSA; 25 C; 10 min per concentration, then washed). Settings: tags: His6-TwinStrep-SUMO cleaved; N-terminal SNAP kept (SNAP-Surface 488); label: 3' end held by stalled T7 RNA polymerase.
B1 was tested, and the Kd was 7 ± 1.7 nM. In the case of B2, the Kd is reported as 8.9 ± 0.8 nM. B3 was tested, and the Kd was 10.2 ± 1.5 nM. B4 gave a Kd of 7.8 ± 0.5 nM. With B5 the Kd was 15 ± 1.2 nM. B6 gave a Kd of 31 ± 5 nM. B7 gave a Kd of 3.72 ± 0.32 nM. With B8 the Kd was 30 ± 5 nM. B9 was tested, and the Kd was about 37 nM. Binder B10 has a Kd of 20 ± 4 nM. B11 gave a Kd of 6.8 ± 0.5 nM. B12 showed a Kd of 9.9 ± 1.5 nM. With B13 the Kd was 2.56 ± 0.25 nM. With B14 the Kd was 19 ± 7 nM. B15 was tested, and the Kd was 9.5 ± 2.5 nM. In the case of B16, the Kd is reported as 9.2 ± 0.8 nM. With B17 the Kd was 4.2 ± 0.7 nM. Work on B18 yielded a Kd of 9.3 ± 2.2 nM. With B19 the Kd was 15.3 ± 2.4 nM. In the case of B20, the Kd is reported as 7.3 ± 1.3 nM. Binder B21 has a Kd of 6.3 ± 1.1 nM. B22 showed a Kd of 5.4 ± 0.9 nM. In the case of B23, the Kd is reported as 6.9 ± 0.7 nM. In the case of B24, the Kd is reported as 7.6 ± 0.8 nM. For B25, the Kd was 90 ± 40 nM. Work on B26 yielded a Kd of 23 ± 10 nM. Binder B27 has a Kd of 10.6 ± 0.5 nM. For B28, the Kd was 3.1 ± 0.5 nM.
